These results are taken from patent US20190248900A1 (Y BIOLOGICS, published 2019).

First the molecules themselves.
T1: PLXDC1 (Homo sapiens (Human), UniProt Q8IUK5 19-426)
T1 sequence: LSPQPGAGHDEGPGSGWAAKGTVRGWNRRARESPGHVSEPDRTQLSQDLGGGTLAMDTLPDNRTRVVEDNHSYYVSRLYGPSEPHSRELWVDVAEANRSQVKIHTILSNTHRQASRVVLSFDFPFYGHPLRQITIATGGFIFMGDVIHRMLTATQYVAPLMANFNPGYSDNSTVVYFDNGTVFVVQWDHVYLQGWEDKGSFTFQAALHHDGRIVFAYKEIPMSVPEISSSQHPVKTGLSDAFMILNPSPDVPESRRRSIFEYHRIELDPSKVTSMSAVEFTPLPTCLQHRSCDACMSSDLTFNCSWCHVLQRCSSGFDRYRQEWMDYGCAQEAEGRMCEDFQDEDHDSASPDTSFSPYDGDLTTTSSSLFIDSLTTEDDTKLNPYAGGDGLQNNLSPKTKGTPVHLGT

T2: CD320 (Homo sapiens (Human), UniProt Q9NPF0 36-229)
T2 sequence: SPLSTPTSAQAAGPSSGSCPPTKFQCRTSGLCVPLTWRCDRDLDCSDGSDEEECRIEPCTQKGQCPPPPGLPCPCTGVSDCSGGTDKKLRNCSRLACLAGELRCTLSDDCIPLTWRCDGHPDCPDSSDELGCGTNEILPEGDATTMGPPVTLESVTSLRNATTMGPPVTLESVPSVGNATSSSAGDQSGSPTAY

T3: ULBP1 (Homo sapiens (Human), UniProt Q9BZM6 26-216)
T3 sequence: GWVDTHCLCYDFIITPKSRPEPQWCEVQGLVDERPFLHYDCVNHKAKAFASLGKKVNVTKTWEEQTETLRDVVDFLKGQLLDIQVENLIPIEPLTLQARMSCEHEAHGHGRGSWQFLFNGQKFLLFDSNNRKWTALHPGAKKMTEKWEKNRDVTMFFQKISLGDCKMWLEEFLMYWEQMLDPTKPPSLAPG

T4: SPARC (Homo sapiens (Human), UniProt P09486 18-303)
T4 sequence: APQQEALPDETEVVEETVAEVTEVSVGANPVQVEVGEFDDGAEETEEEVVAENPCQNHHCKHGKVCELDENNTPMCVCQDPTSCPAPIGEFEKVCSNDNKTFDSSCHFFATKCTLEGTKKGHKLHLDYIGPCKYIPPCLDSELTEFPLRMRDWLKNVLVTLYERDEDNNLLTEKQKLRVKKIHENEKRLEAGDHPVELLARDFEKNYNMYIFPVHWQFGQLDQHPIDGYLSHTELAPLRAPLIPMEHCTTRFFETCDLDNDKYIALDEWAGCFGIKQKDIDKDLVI

T5: SEMA5A (Homo sapiens (Human), UniProt Q13591 23-968)
T5 sequence: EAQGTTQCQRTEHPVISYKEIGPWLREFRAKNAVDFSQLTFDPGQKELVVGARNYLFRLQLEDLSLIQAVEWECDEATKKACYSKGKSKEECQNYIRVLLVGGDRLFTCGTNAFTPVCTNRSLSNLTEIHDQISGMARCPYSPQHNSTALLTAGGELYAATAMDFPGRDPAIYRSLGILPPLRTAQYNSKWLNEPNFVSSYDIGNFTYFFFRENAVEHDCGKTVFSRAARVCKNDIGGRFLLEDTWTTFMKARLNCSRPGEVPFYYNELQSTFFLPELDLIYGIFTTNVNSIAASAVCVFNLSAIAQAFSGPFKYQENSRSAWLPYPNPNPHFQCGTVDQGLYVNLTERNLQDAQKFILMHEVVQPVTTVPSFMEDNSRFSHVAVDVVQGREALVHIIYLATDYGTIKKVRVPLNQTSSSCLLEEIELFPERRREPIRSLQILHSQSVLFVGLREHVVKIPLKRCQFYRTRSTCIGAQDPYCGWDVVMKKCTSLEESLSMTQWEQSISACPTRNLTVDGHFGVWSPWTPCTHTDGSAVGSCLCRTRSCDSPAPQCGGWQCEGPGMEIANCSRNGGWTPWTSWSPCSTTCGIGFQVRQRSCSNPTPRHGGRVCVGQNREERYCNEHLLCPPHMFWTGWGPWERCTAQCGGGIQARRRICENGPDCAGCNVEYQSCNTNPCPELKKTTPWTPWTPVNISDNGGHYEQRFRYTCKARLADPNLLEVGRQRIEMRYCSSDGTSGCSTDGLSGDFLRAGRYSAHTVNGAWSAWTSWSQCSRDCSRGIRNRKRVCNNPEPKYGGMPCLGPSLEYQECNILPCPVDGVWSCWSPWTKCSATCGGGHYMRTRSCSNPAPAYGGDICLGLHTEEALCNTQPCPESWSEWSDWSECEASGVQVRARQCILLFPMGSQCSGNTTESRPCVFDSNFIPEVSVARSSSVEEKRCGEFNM

T6: ICOSLG (Homo sapiens (Human), UniProt O75144 19-256)
T6 sequence: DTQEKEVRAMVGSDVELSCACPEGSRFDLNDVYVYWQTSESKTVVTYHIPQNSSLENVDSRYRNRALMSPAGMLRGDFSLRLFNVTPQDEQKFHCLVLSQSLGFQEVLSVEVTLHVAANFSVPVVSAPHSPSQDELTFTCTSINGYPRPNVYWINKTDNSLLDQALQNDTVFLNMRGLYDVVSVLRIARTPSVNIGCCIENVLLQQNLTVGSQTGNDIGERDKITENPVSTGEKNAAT

T7: OSTM1 (Homo sapiens (Human), UniProt Q86WC4 32-284)
T7 sequence: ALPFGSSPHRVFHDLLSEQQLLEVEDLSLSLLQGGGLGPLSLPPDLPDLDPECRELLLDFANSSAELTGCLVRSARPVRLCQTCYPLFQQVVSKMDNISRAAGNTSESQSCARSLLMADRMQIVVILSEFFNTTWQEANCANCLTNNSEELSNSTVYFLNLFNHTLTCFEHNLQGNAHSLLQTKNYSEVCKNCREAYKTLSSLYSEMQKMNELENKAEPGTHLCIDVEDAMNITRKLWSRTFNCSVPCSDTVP

B1: PD1-41C9 (antibody, V domains shown)
VH: QMQLVESGGGVVQPGRSLRLSCAASGFTFSSYAMHWVRQAPGKGLEWVAVISYDGSNKYYADSVKGRFTISRDNSKNTLYLQMNRLRSEDTAVYYCTTTTFDSWGQGTLITVSS
VL: DIVMTQTPLSLPVTPGEAASISCRSSQSLLDSEDGNTYLDWYLQKPGQSPQLLIYTLSHRASGVPDRFSGSGSGTDFTLKISRVAAEDVGLYYCLQRMGFPYTFGQGTKLDIK
notes: scFv-phage in the screening ELISA; whole IgG in the other assays
B2: PD1-49A2 (antibody, V domains shown)
VH: B1 VH with M2V, S75P, R85S, S88A, Q106R, I110V
VL: B1 VL with T7S, A18P, L30F, E33D, A85E, L91I, L110V, D111E
notes: scFv-phage in the screening ELISA; whole IgG in the other assays; also called Parent 49A2
B3: PD1-45D6 (antibody, V domains shown)
VH: QVQLVESGGGVVQPGRSLRLSCAASGFTFSSYAMHWVRQVPGKGLEWVAVISYDGNDKYYADSVKGRFTISRDNSKNTLYLQMNSLRAEDTAVYYCVPTTFEYWGQGSQVTVSS
VL: DIVMTQTPLSLPVTPGEAASISCRSSQSLLDSDDGKTYLDWYLQKPGQSPQLLIYTLSYRASGVPDRFSGSGSGTEFNLRISRVEAEDVGIYYCMQRVEFPFTFGQGTKLDIK
notes: as for B1

Substitutions are numbered along the chain they refer to.

Sequence of DKK3 (Q9UBP4 22-350 limits assumed): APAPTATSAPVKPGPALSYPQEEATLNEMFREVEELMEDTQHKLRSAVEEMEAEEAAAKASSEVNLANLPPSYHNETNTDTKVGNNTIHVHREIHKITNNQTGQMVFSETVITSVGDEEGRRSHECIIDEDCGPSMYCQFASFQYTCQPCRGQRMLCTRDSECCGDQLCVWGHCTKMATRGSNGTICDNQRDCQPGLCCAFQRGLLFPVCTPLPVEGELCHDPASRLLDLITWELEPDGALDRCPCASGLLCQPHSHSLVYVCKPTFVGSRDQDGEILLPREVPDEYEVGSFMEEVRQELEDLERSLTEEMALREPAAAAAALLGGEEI

One test addresses DKK3 (Homo sapiens (Human), UniProt Q9UBP4 22-350). Kind of test: ELISA. For orientation: In an ELISA, binding on a coated surface is turned into a signal by an enzyme label.
As for B1, the binding result was “no binding (tested: 1 ug/ml)”.

For B2, the binding result was “no binding (tested: 1 ug/ml)”.

As for B3, the binding result is “no binding (tested: 1 ug/ml)”.

For the next test, the target named is LRRN1 (Homo sapiens (Human), UniProt Q6UXK5 26-631). Nature of the test: ELISA.
Sequence of LRRN1 (Q6UXK5 26-631 limits assumed): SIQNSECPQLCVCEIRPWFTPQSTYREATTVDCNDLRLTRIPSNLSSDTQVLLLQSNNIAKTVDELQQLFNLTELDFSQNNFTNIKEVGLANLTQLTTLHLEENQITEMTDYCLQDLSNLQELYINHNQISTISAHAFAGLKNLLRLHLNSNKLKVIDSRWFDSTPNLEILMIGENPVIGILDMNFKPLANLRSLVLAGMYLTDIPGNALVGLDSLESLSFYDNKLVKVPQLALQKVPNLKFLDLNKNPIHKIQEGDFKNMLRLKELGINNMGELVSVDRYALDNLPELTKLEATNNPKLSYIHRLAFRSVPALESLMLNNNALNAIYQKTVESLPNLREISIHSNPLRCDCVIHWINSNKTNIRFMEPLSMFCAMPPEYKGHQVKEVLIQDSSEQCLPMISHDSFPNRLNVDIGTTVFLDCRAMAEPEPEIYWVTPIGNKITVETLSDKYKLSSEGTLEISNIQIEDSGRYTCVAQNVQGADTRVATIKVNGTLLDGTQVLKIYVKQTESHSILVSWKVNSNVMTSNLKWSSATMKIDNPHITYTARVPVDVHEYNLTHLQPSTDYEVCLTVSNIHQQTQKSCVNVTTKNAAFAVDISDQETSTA
Take B1: the binding result is given as “no binding (tested: 1 ug/ml)”.

For the molecule B2, the binding result is reported as “no binding (tested: 1 ug/ml)”.

B3: the binding result is recorded as “no binding (tested: 1 ug/ml)”.

The next test concerns the target T1, PLXDC1. Nature of the test: ELISA.
As for B1, the binding result is given as “no binding (tested: 1 ug/ml)”.

B2: the binding result is listed as “no binding (tested: 1 ug/ml)”.

With B3, the binding result was “no binding (tested: 1 ug/ml)”.

A further test deals with T2, CD320. Nature of the test: ELISA.
Regarding B1, the binding result is recorded as “no binding (tested: 1 ug/ml)”.

Turning to B2, the binding result is reported as “no binding (tested: 1 ug/ml)”.

Regarding B3, the binding result is “no binding (tested: 1 ug/ml)”.

The next test addresses T3, ULBP1. Kind of test: ELISA.
Consider B1, for which the binding result was “no binding (tested: 1 ug/ml)”.

Take B2: the binding result is recorded as “no binding (tested: 1 ug/ml)”.

In the case of B3, the binding result is on record as “no binding (tested: 1 ug/ml)”.

The target in the next test is T4, SPARC. Nature of the test: ELISA.
Take B1: the binding result is given as “no binding (tested: 1 ug/ml)”.

Regarding B2, the binding result is reported as “no binding (tested: 1 ug/ml)”.

As to B3, the binding result is given as “no binding (tested: 1 ug/ml)”.

A further test deals with T5, SEMA5A. Nature of the test: ELISA.
As for B1, the binding result is reported as “no binding (tested: 1 ug/ml)”.

Consider B2, for which the binding result was “no binding (tested: 1 ug/ml)”.

With B3, the binding result is given as “no binding (tested: 1 ug/ml)”.

In a further test the target is T6, ICOSLG. Nature of the test: ELISA.
With B1, the binding result is on record as “no binding (tested: 1 ug/ml)”.

Consider B2, for which the binding result is recorded as “no binding (tested: 1 ug/ml)”.

In the case of B3, the binding result is recorded as “no binding (tested: 1 ug/ml)”.

The next test concerns the target T7, OSTM1. Kind of test: ELISA.
For the molecule B1, the binding result is on record as “no binding (tested: 1 ug/ml)”.

For the molecule B2, the binding result is on record as “no binding (tested: 1 ug/ml)”.

In the case of B3, the binding result was “no binding (tested: 1 ug/ml)”.
